# Measured values from publication PMC3818340.
# Key:
# purified protein [1] = substrate: CC#CC(=O)C(=O)O; assay: purified protein; type: biochemical, coryneform bacterium; conditions: 20 mM sodium phosphate buffer, pH 9.0, 24 °C
# purified protein [2] = substrate: CC#CC(=O)C(=O)O; assay: purified protein; type: biochemical, Pseudomonas pavonaceae; conditions: 20 mM sodium phosphate buffer, pH 9.0, 24 °C
Protein,Km (purified protein [1]),kcat (purified protein [1]),kcat/Km (purified protein [1]),Km (purified protein [2]),kcat (purified protein [2]),kcat/Km (purified protein [2])
FG41 MSAD (coryneform bacterium) (protein) PLIRIDLTSDRSREQRRAIADAVHDALVEVLAIPARDRFQILTAHDPSDIIAEDAGLGFQRSPSVVIIHVFTQAGRTIETKQRVFAAITESLAPIGVAGSDVFIAITENAPHDWSFGFGSAQYVTGELAIPATGAA,7.3 ± 0.8 mM,0.17 ± 0.01 s⁻¹,20 M⁻¹ s⁻¹,,,
FG41 MSAD (coryneform bacterium; Q73R) (protein) PLIRIDLTSDRSREQRRAIADAVHDALVEVLAIPARDRFQILTAHDPSDIIAEDAGLGFQRSPSVVIIHVFTRAGRTIETKQRVFAAITESLAPIGVAGSDVFIAITENAPHDWSFGFGSAQYVTGELAIPATGAA,6.6 ± 1.5 mM,1.2 ± 0.2 s⁻¹,180 M⁻¹ s⁻¹,,,
FG41 MSAD (coryneform bacterium; Y123F) (protein) PLIRIDLTSDRSREQRRAIADAVHDALVEVLAIPARDRFQILTAHDPSDIIAEDAGLGFQRSPSVVIIHVFTQAGRTIETKQRVFAAITESLAPIGVAGSDVFIAITENAPHDWSFGFGSAQFVTGELAIPATGAA,21 ± 5 mM,0.7 ± 0.1 s⁻¹,30 M⁻¹ s⁻¹,,,
Pp MSAD (Pseudomonas pavonaceae) (protein) PLLKFDIFYGRTDAQIKSLLDAAHGAMVDAFGVPANDRYQTVSQHRPGEMVLEDTGLGYGRSSAVVLLTVISRPRSEEQKVCFYKLLTGALERDCGISPDDVIVALVENSDADWSFGRGRAEFLTGDLV,,,,3 ± 1.2 mM,3.4 ± 0.8 s⁻¹,1130 M⁻¹ s⁻¹
